Source: patent US20230212549A1, “COMPOUNDS COMPRISING A […] LIGAND AND USE THEREOF” (priority 2021, published 2023)
Values belong to the binder of their own block, whether it stands above or below them. Bridge positions count the residues as written; N and C are the ends.

Experiments:
Experiment in all cases: radioligand displacement (agonist radioligand), 10 µM
Conditions in all cases: remark: other sources report otherwise
[1] = biological target: kappa (h) (KOP) (human), P41145
[2] = biological target: T1, delta (DOP) (h) (human), P41143
T1 chain: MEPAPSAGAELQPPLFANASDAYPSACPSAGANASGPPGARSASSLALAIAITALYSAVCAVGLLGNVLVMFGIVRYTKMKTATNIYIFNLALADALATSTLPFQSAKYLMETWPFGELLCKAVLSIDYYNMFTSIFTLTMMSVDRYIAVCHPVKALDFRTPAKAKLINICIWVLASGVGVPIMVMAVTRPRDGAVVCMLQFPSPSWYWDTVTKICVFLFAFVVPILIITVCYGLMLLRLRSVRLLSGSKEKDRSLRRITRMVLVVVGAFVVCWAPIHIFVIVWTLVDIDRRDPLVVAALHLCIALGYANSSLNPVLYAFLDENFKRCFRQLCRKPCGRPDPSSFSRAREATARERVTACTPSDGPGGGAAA

[3] = biological target: beta 1 (h) (human), P08588
beta 1 (h) (human), P08588, sequence (P08588 whole entry): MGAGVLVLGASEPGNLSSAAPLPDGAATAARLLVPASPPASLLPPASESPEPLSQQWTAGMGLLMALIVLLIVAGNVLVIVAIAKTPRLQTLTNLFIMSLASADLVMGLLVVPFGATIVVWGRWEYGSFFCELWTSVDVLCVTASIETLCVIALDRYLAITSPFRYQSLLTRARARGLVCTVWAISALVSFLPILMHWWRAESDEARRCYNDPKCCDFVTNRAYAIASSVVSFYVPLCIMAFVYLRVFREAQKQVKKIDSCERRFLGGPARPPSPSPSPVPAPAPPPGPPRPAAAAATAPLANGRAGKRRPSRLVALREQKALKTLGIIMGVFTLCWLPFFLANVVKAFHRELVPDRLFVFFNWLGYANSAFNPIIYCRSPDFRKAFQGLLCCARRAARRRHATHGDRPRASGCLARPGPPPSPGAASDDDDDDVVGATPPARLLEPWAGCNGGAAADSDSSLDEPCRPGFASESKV

AR (h) (human), P10275 = biological target: T2, AR (h) (human), P10275
T2 chain: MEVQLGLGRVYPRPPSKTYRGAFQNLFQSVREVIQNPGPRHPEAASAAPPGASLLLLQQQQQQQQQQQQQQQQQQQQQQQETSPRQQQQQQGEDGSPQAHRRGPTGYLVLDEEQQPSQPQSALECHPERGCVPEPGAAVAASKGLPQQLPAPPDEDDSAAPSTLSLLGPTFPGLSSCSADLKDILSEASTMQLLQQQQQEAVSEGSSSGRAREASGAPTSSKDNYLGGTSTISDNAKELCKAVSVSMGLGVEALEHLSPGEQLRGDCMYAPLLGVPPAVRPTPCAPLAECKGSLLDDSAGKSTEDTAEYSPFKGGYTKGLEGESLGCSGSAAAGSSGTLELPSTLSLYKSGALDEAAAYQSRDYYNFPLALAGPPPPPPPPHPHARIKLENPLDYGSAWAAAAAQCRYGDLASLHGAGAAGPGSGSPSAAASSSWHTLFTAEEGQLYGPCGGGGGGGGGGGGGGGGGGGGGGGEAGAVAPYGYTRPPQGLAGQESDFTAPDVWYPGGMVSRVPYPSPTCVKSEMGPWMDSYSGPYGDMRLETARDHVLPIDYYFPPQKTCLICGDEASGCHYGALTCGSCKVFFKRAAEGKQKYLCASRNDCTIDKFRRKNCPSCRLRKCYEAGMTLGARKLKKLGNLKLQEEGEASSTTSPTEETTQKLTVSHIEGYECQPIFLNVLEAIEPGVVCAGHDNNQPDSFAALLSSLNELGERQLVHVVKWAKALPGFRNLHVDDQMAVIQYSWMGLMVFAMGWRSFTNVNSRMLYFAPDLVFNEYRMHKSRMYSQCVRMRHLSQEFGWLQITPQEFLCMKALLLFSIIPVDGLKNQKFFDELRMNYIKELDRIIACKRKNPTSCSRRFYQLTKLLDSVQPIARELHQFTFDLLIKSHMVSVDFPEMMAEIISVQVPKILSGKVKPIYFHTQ

CB1 (h) (human), P21554 = biological target: T3, CB1 (h) (human), P21554
T3 chain: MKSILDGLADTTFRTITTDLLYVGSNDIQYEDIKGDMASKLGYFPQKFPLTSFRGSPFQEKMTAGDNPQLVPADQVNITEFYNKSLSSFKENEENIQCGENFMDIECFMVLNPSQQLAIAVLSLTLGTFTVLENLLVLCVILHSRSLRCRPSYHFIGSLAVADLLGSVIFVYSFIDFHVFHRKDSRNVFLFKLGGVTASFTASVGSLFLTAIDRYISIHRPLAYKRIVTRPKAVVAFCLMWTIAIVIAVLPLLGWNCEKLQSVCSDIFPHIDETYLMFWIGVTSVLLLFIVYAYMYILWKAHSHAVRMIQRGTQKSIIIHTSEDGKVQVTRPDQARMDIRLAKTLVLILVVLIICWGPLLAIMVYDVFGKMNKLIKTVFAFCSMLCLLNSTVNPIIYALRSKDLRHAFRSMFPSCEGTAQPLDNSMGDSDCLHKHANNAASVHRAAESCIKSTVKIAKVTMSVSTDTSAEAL

[4] = substrate: N neuronal alpha 4beta 2 (h) (human), P43681
N neuronal alpha 4beta 2 (h) (human), P43681, sequence (P43681 27-627, chain 1 of 2): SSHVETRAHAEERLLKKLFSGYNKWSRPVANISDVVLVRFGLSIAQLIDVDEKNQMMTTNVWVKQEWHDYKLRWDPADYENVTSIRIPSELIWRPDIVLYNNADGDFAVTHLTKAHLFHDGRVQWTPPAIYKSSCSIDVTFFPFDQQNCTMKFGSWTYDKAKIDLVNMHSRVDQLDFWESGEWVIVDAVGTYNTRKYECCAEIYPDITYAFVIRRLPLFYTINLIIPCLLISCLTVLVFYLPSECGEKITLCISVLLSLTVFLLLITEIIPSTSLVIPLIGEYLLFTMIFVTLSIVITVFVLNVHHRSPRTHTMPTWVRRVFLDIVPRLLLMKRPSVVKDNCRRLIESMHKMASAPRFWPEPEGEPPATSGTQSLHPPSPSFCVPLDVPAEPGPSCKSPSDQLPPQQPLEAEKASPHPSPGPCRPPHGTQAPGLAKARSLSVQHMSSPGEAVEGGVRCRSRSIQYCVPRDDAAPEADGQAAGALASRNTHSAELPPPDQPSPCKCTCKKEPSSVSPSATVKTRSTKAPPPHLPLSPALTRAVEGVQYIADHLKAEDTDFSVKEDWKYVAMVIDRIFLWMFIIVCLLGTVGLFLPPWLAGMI
N neuronal alpha 4beta 2 (h) (human), P43681, sequence (P17787 26-502, chain 2 of 2, further chain): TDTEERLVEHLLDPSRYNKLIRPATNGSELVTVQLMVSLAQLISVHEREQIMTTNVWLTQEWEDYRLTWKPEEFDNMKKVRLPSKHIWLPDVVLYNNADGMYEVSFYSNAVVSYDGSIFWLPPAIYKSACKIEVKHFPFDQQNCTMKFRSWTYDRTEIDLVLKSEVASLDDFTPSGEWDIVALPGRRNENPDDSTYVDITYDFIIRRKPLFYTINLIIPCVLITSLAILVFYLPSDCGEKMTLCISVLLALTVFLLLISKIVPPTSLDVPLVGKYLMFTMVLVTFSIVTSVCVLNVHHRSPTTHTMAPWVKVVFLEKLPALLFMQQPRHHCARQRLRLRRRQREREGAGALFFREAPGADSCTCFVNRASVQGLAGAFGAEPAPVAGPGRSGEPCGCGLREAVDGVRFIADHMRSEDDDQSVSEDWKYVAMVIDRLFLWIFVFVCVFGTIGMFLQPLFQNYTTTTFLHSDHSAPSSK

[5] = biological target: T4, 5-HT1A (h) (human), P08908
T4 chain: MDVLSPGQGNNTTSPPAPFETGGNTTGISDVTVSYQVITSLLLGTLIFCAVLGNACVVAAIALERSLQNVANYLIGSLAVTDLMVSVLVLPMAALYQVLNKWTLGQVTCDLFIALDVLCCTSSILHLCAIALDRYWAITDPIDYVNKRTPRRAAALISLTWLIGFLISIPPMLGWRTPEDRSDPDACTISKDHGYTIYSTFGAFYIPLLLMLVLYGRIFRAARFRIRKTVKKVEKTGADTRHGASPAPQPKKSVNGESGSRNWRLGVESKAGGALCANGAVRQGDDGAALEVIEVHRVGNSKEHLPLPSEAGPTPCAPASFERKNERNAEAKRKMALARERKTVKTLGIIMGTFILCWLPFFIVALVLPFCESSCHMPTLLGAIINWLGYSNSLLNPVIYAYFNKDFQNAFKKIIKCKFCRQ

kappa (h) (KOP) (human), P41145, sequence (P41145 whole entry): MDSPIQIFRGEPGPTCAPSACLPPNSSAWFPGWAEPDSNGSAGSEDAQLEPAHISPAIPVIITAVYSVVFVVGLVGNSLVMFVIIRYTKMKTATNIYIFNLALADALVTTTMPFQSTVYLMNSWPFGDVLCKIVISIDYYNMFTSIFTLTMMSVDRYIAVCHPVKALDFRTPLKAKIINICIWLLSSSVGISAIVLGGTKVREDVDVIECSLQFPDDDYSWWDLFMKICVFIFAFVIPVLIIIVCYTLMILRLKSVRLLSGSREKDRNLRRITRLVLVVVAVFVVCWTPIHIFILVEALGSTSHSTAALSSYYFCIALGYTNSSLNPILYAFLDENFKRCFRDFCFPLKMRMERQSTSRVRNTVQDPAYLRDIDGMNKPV

B1: Hex-[Cys(tMeBn(DOTA-PP))-Pro-Pro-Thr-Gln-Phe-Cys]-Asp-NH2 (peptide)
peptide: Hex-CPPTQFCD-NH2
modifications: bridge 1-7; not fully specified (bridges); printed as Hex-[Cys(tMeBn(DOTA-PP))-Pro-Pro-Thr-Gln-Phe-Cys]-Asp-NH2
- % Inhibition of Specific Binding [1]: 7%
- % Inhibition of Specific Binding [2]: 0%
- % Inhibition of Specific Binding [3]: 4%
- % Inhibition of Specific Binding (AR (h) (human), P10275): 3%
- % Inhibition of Specific Binding (CB1 (h) (human), P21554): 5%
- % Inhibition of Specific Binding [4]: -8%
- % Inhibition of Specific Binding [5]: -3%

- % Inhibition of Specific Binding [1]: 10%
- % Inhibition of Specific Binding [2]: 1%
- % Inhibition of Specific Binding [3]: -13%
- % Inhibition of Specific Binding (AR (h) (human), P10275): -5%
- % Inhibition of Specific Binding (CB1 (h) (human), P21554): -7%
- % Inhibition of Specific Binding [4]: -2%
- % Inhibition of Specific Binding [5]: -5%
B2: Hex-[Cys(tMeBn(DOTA-AET))-Pro-Pro-Thr-Gln-Phe-Cys]-OH (peptide)
peptide: Hex-CPPTQFC-OH
modifications: bridge 1-7; not fully specified (bridges); printed as Hex-[Cys(tMeBn(DOTA-AET))-Pro-Pro-Thr-Gln-Phe-Cys]-OH
